{
  "source": "patent US20180057590A1",
  "about": "(VAL CHUM LIMITED PARTNERSHIP, published 2018)",
  "molecular_target": "T1, human Dual Ig domain containing cell adhesion molecule (DICAM) (human, UniProt Q9BRK3 20-442)",
  "T1 construct": "Assayed as endogenous DICAM of THP-1 cells and TH17 lymphocytes, and as human DICAM from vector pCMV6-neo-DICAM in NIH3T3 and NS0 cells; It stood on the cell surface in flow cytometry and in cell lysate in Western blot; also called limitrin; Matrix-remodeling-associated protein 8",
  "T1 sequence": "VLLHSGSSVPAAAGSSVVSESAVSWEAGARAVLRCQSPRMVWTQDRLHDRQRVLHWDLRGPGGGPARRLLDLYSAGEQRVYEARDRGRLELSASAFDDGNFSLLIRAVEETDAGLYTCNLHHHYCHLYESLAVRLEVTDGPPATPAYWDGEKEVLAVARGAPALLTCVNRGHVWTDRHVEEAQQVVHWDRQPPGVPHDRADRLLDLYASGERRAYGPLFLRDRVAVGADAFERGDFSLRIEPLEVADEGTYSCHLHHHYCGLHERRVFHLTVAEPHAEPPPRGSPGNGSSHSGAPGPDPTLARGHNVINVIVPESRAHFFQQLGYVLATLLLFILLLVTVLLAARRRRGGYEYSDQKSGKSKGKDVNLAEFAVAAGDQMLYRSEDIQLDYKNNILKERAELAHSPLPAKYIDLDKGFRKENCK",
  "assay": "Western blot (Table III)",
  "protocol": "THP-1 cells express DICAM as determined by qPCR and confirmed by WB (see Jung et al., Journal of Bone and Mineral Research, Vol. 27, No. 9, pp 2024-2034, 2012). THP-1 cell lysate (30 μg) were loaded on 12% SDS-PAGE gel and electrophoresed for 90 min at 100V and transferred to PVDF membranes. Hybridoma from clone 3C2, 2C11, 2H12, 9E9 and 1B2 (N-terminal DICAM epitope 57-71) or from clone 7F8, 1D9, 4B8 and 1D4 (C-terminal DICAM epitope 372-385) were incubated at 4° C. (50 μg/ml) for 12 h. Secondary antibody is goat anti-mouse pan-IgG coupled to HRP (1/2000 dilution). Actin is shown as a loading control. N=4\nCharacterization of anti-DICAM antibodies by Western blot THP-1 and NIH3T3 cells transfected with human DICAM-encoding vector (pCMV6-neo) or with empty vector (pCMV6-neo) cell lysate ([…]) were loaded on 12% SDS-PAGE gel and electrophoresed for 90 min at 100V and transferred to PVDF membranes. […] N=4 by standard SDS-PAGE and immunoblots were analyzed with anti-DICAM (Goat; 1:100 dilution; sc-163102; Santa Cruz Biotechnology®); horseradish peroxidase-conjugated anti-goat (1:1,000 dilution; P00448; DakoCytomation®) and the ECL system (Amersham Biosciences®) were used to detect specific binding, and anti-actin (1:5,000 dilution; AC-15; MP Biomedicals®) served as a loading control. […]",
  "data": [
    {"binder": "anti-DICAM monoclonal antibody clone 9E9 (antibody, mouse IgG1, V domains shown, Mouse hybridoma antibody, murine IgG1 heavy chain and kappa light chain; also called mAb clone 9E9; hybridoma clone 9E9) VH: EVQLVESGGGLVKPGGSLKLSCAASGFTFISYAMSWVRQTPEKRLEWVATISSGGSYTYYPHSVKGRFTISRDNARNTLYLQMSSLRSEDTAMYYCARLDGPSYAMDYWGQGTSVTVS VL: QIVLTQSPAIMSAFLGEEITLTCSASSSVSYMHWYQQKSGTSPKLLIYSTSNLASGVPSRFSGSGSGTFYSLTISSVEAEDAADYYCHQWSSYRTFGGGTKLEIKR", "values": [
      {"measurement": "binding result", "result": "binds"}
    ]}
  ]
}
